From US20200131256A1

Key:
PACAP38 (human) = experiment: cell-based or functional assay
PACAP27 (human) = experiment: cell-based or functional assay
Chain of PACAP27 (human) (peptide, as listed by the source): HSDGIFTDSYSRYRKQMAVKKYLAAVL

Chain of PACAP38 (human) (peptide, as listed by the source): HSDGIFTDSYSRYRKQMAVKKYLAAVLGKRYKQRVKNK

With Control IgG4 antibody the Percentage Tryptase Release upon addition of PACAP38 (1 uM), human mast cells, negative control antibody (PACAP38 (human)) was 104%, the Percentage Tryptase Release upon addition of PACAP38 (%), negative control antibody dose 153 uM (PACAP38 (human)) was 79.6% and the Percentage Tryptase Release upon addition of PACAP27 (1 uM), human mast cells, negative control antibody (PACAP27 (human)) was 110%. The Percentage Tryptase Release upon addition of PACAP27 (%), negative control antibody dose 153 uM (PACAP27 (human)) was 94.8%.
